How the values were obtained:
[1] = biological target: T1, lysine 48-linked (K48) tetra-ubiquitin (Homo sapiens, UniProt P0CG47); test: Tetra-ubiquitin binding to GST fusions; settings: anti-ubiquitin immunoblot
T1 construct: 1 μg K48 tetra-ubiquitin produced as described (Piotrowski et al., 1997); made in house
Protocol: GST fusions were purified from E. Coli. Binding was carried out using equi-molar amount of fusion proteins measured by Commassie blue staining. Generally, 20 picomoles/sample were used. In vitro translated E2 was generated by coupled transcription and translation using 35S methionine in either wheat germ or rabbit reticulocyte lysate. Binding assays using in vitro translated E2 was carried out by incubating GST protein pre-bound to Glutathione-sepharose 4B with […] of ^35S-methionine labeled E2 in binding buffer (25 mM Tris-HCl, pH 7.4; 50 mM NaCl, 5 mM DTT; and 0.5% NP-40) overnight at 4° C. Beads were washed with binding buffer and resolved by SDS-PAGE under reducing conditions. Analysis was by Storm PhosphoImager (Applied Biosystems, Foster City, Calif.). Direct binding assays used wild type His6-MmUbc7 (His6-Ube2G2) and Glutathione-sepharose bound GST fusions. Beadbound GST protein was incubated with 100 ng purified His6-MmUbc7 in binding buffer and washed and eluted as above. After transfer to Hybond-P (Amersham Biosciences) binding was assessed with anti-His6 followed by Enhanced Chemiluminescence ECL; Pierce). Ubiquitin binding studies were performed with binding and washing as above using 1 μg K48 tetra-ubiquitin produced as described (Piotrowski et al., 1997). Detection was by anti-ubiquitin immunoblotting.

[2] = tested on: ERAD substrate CD3-δ; test: CD3-δ level in co-transfected cells by immunoblotting; type: cell-based; settings: for effect on CD3-δ level (stabilization): co-transfection with CD3-δ, immunoblot; for reversal of G2BD-induced CD3-δ stabilization by co-transfected Ube2G2: cells expressing Flag-tagged gp78 574-643, 2 or 4 μg Ube2G2 plasmid
Protocol: (§1) Transfections of HT1080, NIH 3T3 and HEK 293T cells were carried out ˜24 hr after plating using Polyfect (Qiagen, Valencia, Calif.) and cells harvested after ˜48 hr. J558 cells were transfected by electroporation using Bio-rad GENE pulser II at settings of 250 v, 950uF. Vector without insert was used to equalize total plasmid. In most experiments 0.15 μg of pEGFP-C1 served as an internal control. For experiments not involving immunoprecipitation, 6×10^5 cells were plated in 6 well plates and cell lysis was with Mammalian Protein Extraction Reagent (Pierce). For immunoprecipitation, 2.4×10^6 cells were seeded in 100 mm dishes and cells were lysed in RIPA buffer (1×PBS, 1% Nonidet P40. 0.5% sodium deoxycholate, 0.1% SDS). Lysis buffers were supplemented with Protease Inhibitor Cocktail (Sigma) and 10 mM iodoacetamide. Supernatants were analyzed after a 10,000×g centrifugation using standard techniques for immunoprecipitation, SDS-PAGE, immunoblotting and ECL. Treatment of cells with MG132 (Sigma) was at 50 μM for eight hr. Cycloheximnide was used at 50 μg/ml. All cells were collected at the end of the six hr chase.
FIG. 7 depicts the stabilization of CD3-δ protein in cells transfected with the G2BD, but not with the G2BD with amino acids 579-584 (of SEQ ID NO:2) mutated. HEK 293T cells were transfected with the ERAD substrate CD3-δ along with the indicated GFP fusions of gp78. The left and right sides are two separate experiments.
To test this, GFP fusions of either a minimal E2 binding domain (GFP-574-611) or a more extended region that includes the C-terminus of gp78 (GFP-574-643) were evaluated (FIG. 21A). […] To assess this further, the C-terminal region of gp78 was fused to the eight amino acid Flag tag. […] Mdm2 is a RING finger E3 for both itself and p53 that is neither an ERAD substrate nor known to utilize Ube2G2 as an E2. […] To establish with certainty that the effect observed with expression of the Ube2G2 binding site is a consequence of binding endogenous E2, and not due to other unanticipated effects, cells were co-transfected with increasing amounts of Ube2G2 (FIG. 21C, lanes 3 and 4). […] These findings clearly establish that the isolated E2 binding site has the potential to markedly alter ERAD of CD3-δ. To ensure the effect observed was not peculiar to one substrate, TCR-α was evaluated (FIG. 21D).

[3] = biological target: T2, Myc-Ube2G2 (Mus musculus, UniProt P60605); test: Co-immunoprecipitation with co-expressed Myc-Ube2G2 in cells; type: cell-based; settings: anti-Myc IP, anti-gp78 IB; MG132 8 hr
T2 construct: expressed in transfected cells; host or cells: HEK 293T
T2 sequence (P60605 1-165): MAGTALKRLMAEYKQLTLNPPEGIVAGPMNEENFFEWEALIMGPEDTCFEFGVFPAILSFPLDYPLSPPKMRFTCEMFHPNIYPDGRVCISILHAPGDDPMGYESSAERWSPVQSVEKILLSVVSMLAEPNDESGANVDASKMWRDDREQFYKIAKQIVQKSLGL
Protocol: as §1
FIG. 5 depicts the results of immunoprecipitation of Ube2G2 (MmUbc7) from HEK 293T cells co-transfected with a plasmid encoding myc-tagged MmUbc7/Ube2G2 together with s plasmid encoding various forms of gp78. HEK 293T cells were transfected with a plasmid encoding myc-tagged MmUbc7/Ube2G2 together with plasmids encoding various forms of gp78. After 48 hours, cells were harvested and co-immuntoprecipitated with an anti-Myc tage. Anti-gp78 was used for detection. “R2M” indicates a mutation of two crucial residues in the RING finger. “T” indicates C terminal truncations at the indicated amino acids. ΔB is the mutation indicated above in FIG. 4 in the context of the full length gp78 and “Cue12M” indicates mutations in the Cue domain of gp78.
To confirm the significance of the Ube2G2 binding site in cells, a variety of mutations and truncations of full-length gp78 were tested for binding of co-expressed Myc-Ube2G2 (FIG. 19A). Cells were treated with the proteasome inhibitor MG132 in an attempt to equalize levels of the various forms of gp78.

B1: Cue-m1: GST fusion of complete C-terminal region of gp78 with MFP to GGR mutation of residues 467 to 469 (protein)
chain: IRRHKNYLRVVGNMEARFAVATPEELAVNNDDCAICWDSMQAARKLPCGHLFHNSCLRSWLEQDTSCPTCRMSLNIADNNRVREEHQGENLDENLVPVAAAEGRPRLNQHNHFFHFDGSRIASWLPSFSVEVMHTTNILGITQASNSQLNAMAHQIQEGGRQVPYHLVLQDLQLTRSVEITTDNILEGRIQVPFPTQRSDSIRPALNSPVERPSSDQEEGETSAQTERVPLDLSPRLEETLDFGEVEVEPSEVEDFEARGSRFSKSADERQRMLVQRKDELLQQARKRFLNKSSEDDAASESFLPLEGASSDPVTLRRRMLAAAAERRLQKQQTS
modifications: left off: a dimerising Fc or GST
[1]
  binding of K48 tetra-ubiquitin: total loss of ubiquitin binding

B2: Cue-m2: GST-gp78 fusion with VLQDL to RLQVD mutation of residues 476 to 480 (protein)
chain: IRRHKNYLRVVGNMEARFAVATPEELAVNNDDCAICWDSMQAARKLPCGHLFHNSCLRSWLEQDTSCPTCRMSLNIADNNRVREEHQGENLDENLVPVAAAEGRPRLNQHNHFFHFDGSRIASWLPSFSVEVMHTTNILGITQASNSQLNAMAHQIQEMFPQVPYHLRLQVDQLTRSVEITTDNILEGRIQVPFPTQRSDSIRPALNSPVERPSSDQEEGETSAQTERVPLDLSPRLEETLDFGEVEVEPSEVEDFEARGSRFSKSADERQRMLVQRKDELLQQARKRFLNKSSEDDAASESFLPLEGASSDPVTLRRRMLAAAAERRLQKQQTS
modifications: left off: a dimerising Fc or GST
[1]
  binding of K48 tetra-ubiquitin: total loss of ubiquitin binding

B3: 435-507: GST fusion of amino acids 435-507 of gp78, the Cue domain region (protein)
chain: SFSVEVMHTTNILGITQASNSQLNAMAHQIQEMFPQVPYHLVLQDLQLTRSVEITTDNILEGRIQVPFPTQRS
modifications: left off: a dimerising Fc or GST
notes: GST fusion of amino acids 435-507 of gp78, the Cue domain region
[1]
  binding of K48 tetra-ubiquitin: sufficient to bind tetra-ubiquitin

B4: GFP-574-643: GFP fusion of a more extended region that includes the C-terminus of gp78, residues 574-643 (protein, listed as Homo sapiens)
chain: SADERQRMLVQRKDELLQQARKRFLNKSSEDDAASESFLPLEGASSDPVTLRRRMLAAAAERRLQKQQTS
[2]
  effect on CD3-δ level (stabilization): dramatically stabilized CD3-δ

B5: Flag-tagged gp78 residues 574-643: C-terminal region of gp78 fused to the eight amino acid Flag tag (protein)
chain: SADERQRMLVQRKDELLQQARKRFLNKSSEDDAASESFLPLEGASSDPVTLRRRMLAAAAERRLQKQQTS
modifications: left off: small tags and cut ends
notes: C-terminal region of gp78 fused to the eight amino acid Flag tag
[2]
  effect on CD3-δ level (stabilization): marked stabilization of CD3-δ

B6: gp78576: gp78 truncated after amino acid 576 of SEQ ID NO:2 (protein, listed as Homo sapiens)
chain: MPLLFLERFPWPSLRTYTGLSGLALLGTIISAYRALSQPEAGPGEPDQLTASLQPEPPAPARPSAGGPRARDVAQYLLSDSLFVWVLVNTACCVLMLVAKLIQCIVFGPLRVSERQHLKDKFWNFIFYKFIFIFGVLNVQTVEEVVMWCLWFAGLVFLHLMVQLCKDRFEYLSFSPTTPMSSHGRVLSLLVAMLLSCCGLAAVCSITGYTHGMHTLAFMAAESLLVTVRTAHVILRYVIHLWDLNHEGTWEGKGTYVYYTDFVMELTLLSLDLMHHIHMLLFGNIWLSMASLVIFMQLRYLFHEVQRRIRRHKNYLRVVGNMEARFAVATPEELAVNNDDCAICWDSMQAARKLPCGHLFHNSCLRSWLEQDTSCPTCRMSLNIADNNRVREEHQGENLDENLVPVAAAEGRPRLNQHNHFFHFDGSRIASWLPSFSVEVMHTTNILGITQASNSQLNAMAHQIQEMFPQVPYHLVLQDLQLTRSVEITTDNILEGRIQVPFPTQRSDSIRPALNSPVERPSSDQEEGETSAQTERVPLDLSPRLEETLDFGEVEVEPSEVEDFEARGSRFSKSAD
[3]
  E2 association of full-length gp78 forms with co-expressed Myc-Ube2G2: loss of E2 binding

B7: Ube2G2: ubiquitin conjugating enzyme Ube2G2 expressed from co-transfected plasmid (protein, listed as Homo sapiens)
chain: MAGTALKRLMAEYKQLTLNPPEGIVAGPMNEENFFEWEALIMGPEDTCFEFGVFPAILSFPLDYPLSPPKMRFTCEMFHPNIYPDGRVCISILHAPGDDPMGYESSAERWSPVQSVEKILLSVVSMLAEPNDESGANVDASKMWRDDREQFYKIAKQIVQKSLGL
[2]
  reversal of G2BD-induced CD3-δ stabilization by co-transfected Ube2G2: dose-dependent reversal of CD3-δ stabilization
[2]; listed as Ube2G2/MmUbc7
  reversal of G2BD-induced CD3-δ stabilization by co-transfected Ube2G2: reversed
